Experimental data as given in publication PMC6814707 (Communications Biology, 2019).

How the values were obtained:
[1] = target: recombinant human PD-1 protein (residues 21-167) (human) (UniProt Q15116); assay: ELISA; blocking: plates coated with 0.5 ug/mL PD-1 (21-167); antibody from 3 ug/mL, 1.5-fold dilutions, 37 °C 120 min; then 1 ug/mL PD-L1-mFc, detected with HRP-anti-mouse Fc
[2] = target: T1, human PD-1 extracellular domain (residues 21-167) (Homo sapiens, UniProt Q15116, N-linked glycans seen at N49, N58 and N116 (N58: two N-acetylglucosamines, one fucose and two mannoses; N49 and N116: one N-acetylglucosamine modelled); N74 ambiguous); assay: crystal structure; PD-1 (21-167) and MW11-h317 Fab mixed 1:2, complex purified on Superdex 200; crystals at 16 °C in 0.1 M Bis-Tris pH 6.5, 28% PEG monomethyl ether 2000; 2.9 Å; two complexes per asymmetric unit; conditions: both partners purified
T1 construct: Construct used for the complex with MW11-h317 Fab and its crystal structure; also called hPD-1; Programmed cell death protein 1; source: CHO cells, electrotransfected; purified from supernatant by a nivolumab-coupled resin
T1 sequence (Q15116 21-167): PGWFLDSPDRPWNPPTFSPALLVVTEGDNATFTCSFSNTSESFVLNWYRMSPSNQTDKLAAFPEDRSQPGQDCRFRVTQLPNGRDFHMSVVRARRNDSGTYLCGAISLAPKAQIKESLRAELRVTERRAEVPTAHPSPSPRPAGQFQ

Sequence of recombinant human PD-1 protein (residues 21-167) (human) (Q15116 21-167): as above

B1: MW11-h317 (humanized anti-PD-1 monoclonal antibody) (antibody, V domains shown)
VH: EVQLVESGGGLVKPGGSLRLSCAASGFTFSSYDMSWVRQAPGKGLEWVATISGGGSYTYYPDSVKGRFTISRDNAKNSLYLQMNSLRAEDTAVYYCASPDSSGVAYWGQGTLVTVSS
VL: DIVMTQSPLSLPVTPGEPASITCKASQDVETVVAWYLQKPGQSPRLLIYWASTRHTGVPDRFSGSGSGTDFTLKISRVEAEDVGVYYCQQYSRYPWTFGQGTKLEIK
IC50 [1]: 1.4 nM

B2: MW11-h317 Fab (Fab, V domains shown)
VH: EVQLVESGGGLVKPGGSLRLSCAASGFTFSSYDMSWVRQAPGKGLEWVATISGGGSYTYYPDSVKGRFTISRDNAKNSLYLQMNSLRAEDTAVYYCASPDSSGVAYWGQGTLVTVSS
VL: DIVMTQSPLSLPVTPGEPASITCKASQDVETVVAWYLQKPGQSPRLLIYWASTRHTGVPDRFSGSGSGTDFTLKISRVEAEDVGVYYCQQYSRYPWTFGQGTKLEIK
notes: heavy chain of the Fab in the structure deposited here (PDB 6JJP); light chain of the Fab in the structure deposited here (PDB 6JJP); The methods speak of plasmids encoding VL and VH; also called MW11-h317 Fab fragment; source: HEK 293, co-transfected with two plasmids; purified from supernatant (Protein G, HiTrap Capto S)
stoichiometry N [2]: 1
